What was measured:
[1] = target: T1, human membrane c-Kit on cells (human, UniProt P10721 26-976); experiment: cell-based or functional assay
[2] = target: T2, recombinant c-Kit receptor-Fc (UniProt P10721 26-520, limits assumed); experiment: KinExA equilibrium binding; KinExA equilibrium binding; recombinant c-Kit receptor-Fc
T2 construct: not shown: Fc part

[3] = target: T1, human membrane c-Kit on cells; experiment: cell-based or functional assay; remark: listed apart in the source
[4] = target: c-Kit (form in the assay not stated) (UniProt P10721 26-520, limits assumed); experiment: Biacore assay, blocking of SCF binding to c-Kit; Biacore; blocking of SCF binding; c-Kit form not stated
[5] = target: T3, Fcγ receptor I (CD64) on U-937 cells (UniProt P12314 16-374, limits assumed); experiment: binding to U-937 cells
T3 construct: whole, on cells; also called FcγRI
T3 sequence (P12314 16-374 limits assumed): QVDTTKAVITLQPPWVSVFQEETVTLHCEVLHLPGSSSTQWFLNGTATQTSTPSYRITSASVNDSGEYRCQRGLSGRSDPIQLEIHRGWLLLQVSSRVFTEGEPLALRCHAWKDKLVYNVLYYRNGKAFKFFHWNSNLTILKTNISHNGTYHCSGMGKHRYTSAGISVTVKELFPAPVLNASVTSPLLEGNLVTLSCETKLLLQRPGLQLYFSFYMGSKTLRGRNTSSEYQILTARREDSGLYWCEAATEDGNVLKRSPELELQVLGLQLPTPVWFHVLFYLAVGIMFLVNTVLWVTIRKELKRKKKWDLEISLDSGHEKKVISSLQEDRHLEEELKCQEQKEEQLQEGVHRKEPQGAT

T1 sequence (P10721 26-976): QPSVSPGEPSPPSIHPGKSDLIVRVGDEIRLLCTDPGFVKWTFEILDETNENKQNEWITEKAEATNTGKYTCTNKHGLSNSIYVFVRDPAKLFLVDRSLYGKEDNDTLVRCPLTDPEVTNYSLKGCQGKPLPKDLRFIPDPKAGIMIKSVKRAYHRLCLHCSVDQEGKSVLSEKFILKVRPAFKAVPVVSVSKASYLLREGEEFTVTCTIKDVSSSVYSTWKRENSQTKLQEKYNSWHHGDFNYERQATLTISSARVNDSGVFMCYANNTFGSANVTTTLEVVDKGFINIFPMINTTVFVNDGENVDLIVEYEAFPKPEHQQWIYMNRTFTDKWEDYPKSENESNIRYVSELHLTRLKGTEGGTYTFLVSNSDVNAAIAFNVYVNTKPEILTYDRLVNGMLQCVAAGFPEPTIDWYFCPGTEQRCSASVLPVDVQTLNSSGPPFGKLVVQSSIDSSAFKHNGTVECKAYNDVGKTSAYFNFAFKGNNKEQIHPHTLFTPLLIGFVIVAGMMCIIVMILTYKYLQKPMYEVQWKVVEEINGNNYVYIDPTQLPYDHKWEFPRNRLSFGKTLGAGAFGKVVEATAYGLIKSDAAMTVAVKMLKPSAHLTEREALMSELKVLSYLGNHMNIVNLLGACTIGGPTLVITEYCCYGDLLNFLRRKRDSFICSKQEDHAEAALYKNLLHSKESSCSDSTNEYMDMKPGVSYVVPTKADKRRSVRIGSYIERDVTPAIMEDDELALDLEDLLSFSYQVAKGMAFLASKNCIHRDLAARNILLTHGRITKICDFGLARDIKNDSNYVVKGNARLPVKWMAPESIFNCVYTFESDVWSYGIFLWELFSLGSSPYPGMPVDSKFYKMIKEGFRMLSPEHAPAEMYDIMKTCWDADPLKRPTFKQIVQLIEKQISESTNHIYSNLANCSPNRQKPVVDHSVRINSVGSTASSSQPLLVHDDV
Chain of c-Kit (form in the assay not stated) (P10721 26-520 limits assumed): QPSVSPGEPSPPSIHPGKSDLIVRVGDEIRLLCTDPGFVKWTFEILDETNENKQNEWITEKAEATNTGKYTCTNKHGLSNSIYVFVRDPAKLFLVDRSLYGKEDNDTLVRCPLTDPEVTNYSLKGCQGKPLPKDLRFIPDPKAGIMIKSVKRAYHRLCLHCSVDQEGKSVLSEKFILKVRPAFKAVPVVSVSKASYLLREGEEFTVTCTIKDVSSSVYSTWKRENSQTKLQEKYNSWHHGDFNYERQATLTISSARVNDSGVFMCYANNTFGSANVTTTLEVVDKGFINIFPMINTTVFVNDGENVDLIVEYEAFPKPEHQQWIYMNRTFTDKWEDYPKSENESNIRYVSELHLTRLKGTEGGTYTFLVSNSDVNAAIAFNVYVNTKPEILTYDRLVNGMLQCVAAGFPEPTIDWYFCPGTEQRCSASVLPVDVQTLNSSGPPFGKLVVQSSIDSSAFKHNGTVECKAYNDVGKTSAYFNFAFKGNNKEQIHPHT
T2 sequence (P10721 26-520 limits assumed): as above

Binder | UT-7 IC50 [1] | Kd [2] | IC50, SCF-dependent survival/proliferation of UT-7 cells [3] | Ki [4] | binding result [5]
Humanized SR-1 aglycosylated IgG1 (hSR-1 aIgG1) (antibody, also called Humanized SR-1 aIgG1; Humanized SR-1 aglyco-IgG1) heavy: not shown light: DIVMTQSPDSLAVSLGERATINCRASESVDIYGNSFMHWYQQKPGQPPKLLIYLASNLESGVPDRFSGSGSGTDFTLTISSLQAEDVAVYYCQQNNEDPYTFGGGTKVEIKRTVAAPSVFIFPPSDEQLKSGTASVVCLLNNFYPREAKVQWKVDNALQSGNSQESVTEQDSKDSTYSLSSTLTLSKADYEKHKVYACEVTHQGLSSPVTKSFNRGEC | 4.5 ng/mL | 1 pM | 35 pM | 70 pM | no binding
murine anti-human c-Kit monoclonal antibody SR-1 (antibody, mouse IgG2a, kappa, V domains shown) VH: QVQLQQPGAELVKPGASVKMSCKASGYTFTSYNMHWVKQTPGQGLEWIGVIYSGNGDTSYNQKFKGKATLTADKSSSTAYMQINSLTSEDSAVYYCARERDTRFGNWGQGTLVTVSA VL: NIVLTQSPASLAVSLGLRATISCRASESVDIYGNSFMHWYQQKPGQPPKLLIYLASNLESGVPARFSGSGSRTDFTLTIDPVEADDAATYYCQQNNEDPYTFGGGTKLEIKR | 3.6 ng/mL | – | – | – | –
